Assay results published in publication PMC12789631.

System: CCCCC[C@H](O)/C=C/[C@H]1[C@H](O)CC(=O)[C@@H]1C/C=C\CCCC(=O)O
Assay: cells, lysate or membranes

With “prostaglandin transporter PGT (OATP2A1) (Homo sapiens; S346A)” as the substance, how does the Km read?
Its Km is 1.14 µM.
